Earlier results, collected in PMC9221429.

Columns and labels:
B-Raf (Homo sapiens) = B-Raf (Homo sapiens) (UniProt P15056)
[1] = molecular target: B-Raf V600E (Homo sapiens) (UniProt P15056)
B-Raf V600E (Homo sapiens), sequence (P15056 2-766 V600E): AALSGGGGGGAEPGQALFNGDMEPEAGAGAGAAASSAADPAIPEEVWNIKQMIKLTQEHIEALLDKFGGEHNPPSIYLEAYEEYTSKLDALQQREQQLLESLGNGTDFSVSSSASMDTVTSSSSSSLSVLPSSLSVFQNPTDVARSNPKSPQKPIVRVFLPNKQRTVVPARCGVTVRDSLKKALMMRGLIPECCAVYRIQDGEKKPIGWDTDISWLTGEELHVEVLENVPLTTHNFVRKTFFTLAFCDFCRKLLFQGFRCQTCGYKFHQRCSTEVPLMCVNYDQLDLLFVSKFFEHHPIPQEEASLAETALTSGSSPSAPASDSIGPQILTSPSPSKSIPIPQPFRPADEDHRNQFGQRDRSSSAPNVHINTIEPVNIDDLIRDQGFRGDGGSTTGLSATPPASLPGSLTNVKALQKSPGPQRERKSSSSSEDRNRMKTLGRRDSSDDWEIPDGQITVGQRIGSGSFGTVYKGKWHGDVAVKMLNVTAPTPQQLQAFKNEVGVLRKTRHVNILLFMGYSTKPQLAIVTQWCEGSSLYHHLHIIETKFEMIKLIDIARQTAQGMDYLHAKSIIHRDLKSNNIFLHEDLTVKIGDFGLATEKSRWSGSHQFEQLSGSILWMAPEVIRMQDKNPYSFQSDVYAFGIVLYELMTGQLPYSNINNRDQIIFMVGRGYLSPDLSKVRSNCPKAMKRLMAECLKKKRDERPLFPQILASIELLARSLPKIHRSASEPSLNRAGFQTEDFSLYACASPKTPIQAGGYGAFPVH

Cdc37, sequence (Q16543 2-378): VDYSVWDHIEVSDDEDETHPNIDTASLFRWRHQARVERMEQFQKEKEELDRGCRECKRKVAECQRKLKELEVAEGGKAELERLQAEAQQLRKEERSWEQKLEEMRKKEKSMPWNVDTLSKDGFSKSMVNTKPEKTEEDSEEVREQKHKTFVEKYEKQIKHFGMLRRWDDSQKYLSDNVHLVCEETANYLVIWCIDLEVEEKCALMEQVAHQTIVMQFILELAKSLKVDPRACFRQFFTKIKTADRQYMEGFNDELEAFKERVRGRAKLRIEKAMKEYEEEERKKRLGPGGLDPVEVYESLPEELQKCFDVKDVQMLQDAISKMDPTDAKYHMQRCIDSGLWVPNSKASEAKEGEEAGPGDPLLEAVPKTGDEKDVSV
B-Raf (Homo sapiens), sequence (P15056 2-766): as the sequence (P15056 2-766 V600E) above, with E599V counted along it

Kd (B-Raf (Homo sapiens)): 1000 nM
Kd [1]: 400 nM
Substance: Cdc37 (from UniProt Q16543)
